Data taken from publication doi:10.1101/2023.09.06.556503 (bioRxiv, 2023).

Key:
[1] = target: Biotinylated SARS-CoV-2 (Wuhan) RBD, held on the SPR chip (SARS-CoV-2 (Wuhan), UniProt P0DTC2, biotin (EZ-Link Sulfo-NHS-LC-biotin); Lys15 within the N-terminal AviTag is named as the biotinylation site); assay: SPR; details: both partners purified
[2] = target: SARS-CoV-2 (Wuhan) receptor-binding domain, soluble monovalent RBD (RBD-H) (SARS-CoV-2 (Wuhan), UniProt P0DTC2); assay: SPR; details: both partners purified

B1: REGN10987 antibody (IgG1) (antibody, V domains shown)
VH: QVQLVESGGGVVQPGRSLRLSCAASGFTFSNYAMYWVRQAPGKGLEWVAVISYDGSNKYYADSVKGRFTISRDNSKNTLYLQMNSLRTEDTAVYYCASGSDYGDYLLVYWGQGTLVTVSS
VL: QSALTQPASVSGSPGQSITISCTGTSSDVGGYNYVSWYQQHPGKAPKLMIYDVSKRPSGVSNRFSGSKSGNTASLTISGLQSEDEADYYCNSLTSISTWVFGGGTKLTVL
B1: binds [1].

B2: EY-6A antibody (IgG1) (antibody, V domains shown)
VH: EVQLVESGGGVVQPGRSLRLSCAASAFTFSSYDMHWVRQAPGKGLEWVAVISYDGSNKYYADSVKGRFTISRDNSKNTLYLQMNSLRAEDTAVYYCAKDGGKLWVYYFDYWGQGTLVTVSS
VL: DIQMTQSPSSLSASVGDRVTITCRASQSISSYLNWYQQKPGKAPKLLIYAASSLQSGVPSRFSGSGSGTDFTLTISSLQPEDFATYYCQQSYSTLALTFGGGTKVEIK
notes: copies: 2 + 2
B2: binds [2]; binds [1].

B3: IgG1 FD-11A antibody (antibody, V domains shown)
VH: EVQLVESGGGVVQPGRSLRLSCAASGFTFSSYGMHWVRQAPGKGLEWVAVIWYDGSNKYYADSVKGRFTISRDNSKNTLYLQMNSLRAEDTAVYYCAKGPDILTGYYNYYYYGMDVWGQGTMVTVSS
VL: QSVLTQPPSVSGAPGQRVTISCTGSSSNIGAGYDVHWYQQLPGTAPKLLIYGNSNRPSGVPDRFSGSKSGTSASLAITGLQAEDEADYYCQSYDSSLSGFYVVFGGGTKLTVL
notes: also called FD-11A IgG; source: ExpiCHO, transfected, purified (MabSelect SuRe); copies: 2 + 2
B3 showed a Kd [1] of 1230 nM.

B4: FI-3A antibody (IgG1) (antibody, V domains shown)
VH: EVQLLESGGGLIQPGGSLRLSCAASGFTVSSNYMSWVRQAPGKGLEWVSVIYSGGSTYYADSVKGRFTISRDNSKNTLYLQMNSLRAEDTAVYYCARDHVRPGMNIWGQGTMVTVSS
VL: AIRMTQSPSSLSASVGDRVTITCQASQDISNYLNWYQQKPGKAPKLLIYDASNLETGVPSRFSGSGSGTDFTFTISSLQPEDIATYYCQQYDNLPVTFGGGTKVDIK
notes: source: ExpiCHO, transfected, purified (MabSelect SuRe); copies: 2 + 2
B4: binds [2]; binds [1].

B5: FD-5D antibody (IgG1) (antibody, V domains shown)
VH: EVQLVESGGGLVQPGGSLRLSCAASGFTFSSYSMNWVRQAPGKGLEWVSYISSSSSTIYYADSVKGRFTISRDNAKNSLYLQMNSLRAEDTAVYYCASPGGITAAGTSVLFGYYGMDVWGQGTTVTVSS
VL: not shown
notes: as for B4
B5: binds [2]; binds [1].
